T1: SaDnaD1-195 (Staphylococcus aureus subsp. aureus ED98, UniProt Q9EUT0 1-195, del196-228)
T1 sequence: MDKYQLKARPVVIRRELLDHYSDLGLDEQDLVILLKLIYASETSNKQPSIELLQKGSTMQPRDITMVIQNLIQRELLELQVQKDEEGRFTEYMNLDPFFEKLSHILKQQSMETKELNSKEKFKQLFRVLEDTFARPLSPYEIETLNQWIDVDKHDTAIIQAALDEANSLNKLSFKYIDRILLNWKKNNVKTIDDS

T2: SaDnaD1-204 (Staphylococcus aureus subsp. aureus ED98, UniProt Q9EUT0 1-204, del205-228)
T2 sequence: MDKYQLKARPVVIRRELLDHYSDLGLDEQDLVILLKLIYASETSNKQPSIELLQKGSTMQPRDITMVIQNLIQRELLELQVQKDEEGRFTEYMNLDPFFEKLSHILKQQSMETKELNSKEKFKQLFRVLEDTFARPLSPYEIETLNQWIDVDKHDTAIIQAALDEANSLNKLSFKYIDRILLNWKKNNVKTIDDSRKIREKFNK

T3: SaDnaD1-200 (Staphylococcus aureus subsp. aureus ED98, UniProt Q9EUT0 1-200, del201-228)
T3 sequence: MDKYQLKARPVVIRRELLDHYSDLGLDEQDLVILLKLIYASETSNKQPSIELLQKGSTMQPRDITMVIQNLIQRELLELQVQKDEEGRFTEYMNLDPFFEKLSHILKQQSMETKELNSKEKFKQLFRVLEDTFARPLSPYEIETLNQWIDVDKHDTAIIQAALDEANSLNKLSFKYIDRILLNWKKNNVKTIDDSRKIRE


Assays:
[1] = target: T1, SaDnaD1-195; assay: tryptophan fluorescence quenching; DNA:protein ratio 1; EMSA: 20 mM Tris-HCl pH 8.0, 100 mM NaCl, 25 C, 30 min, 1.7 nM DNA, gel at 4 C in TBE; fluorescence: 20 mM Tris-HCl pH 8.0, 200 or 500 mM NaCl, 0.1 uM tetramer; conditions: protein: recombinant; tags: C-terminal His tag (pET21e); chain copies: 4; label: 5'-32P (EMSA); unlabeled in fluorescence titration
[2] = target: T2, SaDnaD1-204; assay: as above; conditions: protein: recombinant; tags: C-terminal His tag (pET21e); chain copies: 4; label: 5'-32P (EMSA); unlabeled in fluorescence titration
[3] = target: T3, SaDnaD1-200; assay: as above; conditions: protein: recombinant; tags: C-terminal His tag (pET21e); chain copies: 4; label: 5'-32P (EMSA); unlabeled in fluorescence titration
[4] = target: T1, SaDnaD1-195; assay: EMSA; EMSA: 20 mM Tris-HCl pH 8.0, 100 mM NaCl, 25 C, 30 min, 1.7 nM DNA, gel at 4 C in TBE; fluorescence: 20 mM Tris-HCl pH 8.0, 200 or 500 mM NaCl, 0.1 uM tetramer; conditions: protein: recombinant; tags: C-terminal His tag (pET21e); chain copies: 4; label: 5'-32P
[5] = target: T3, SaDnaD1-200; assay: as above; conditions: protein: recombinant; tags: C-terminal His tag (pET21e); chain copies: 4; label: 5'-32P

Binder | binding signal [1] | binding signal [2] | binding signal [3] | binding result [4] | binding result [5]
dT65 (ssDNA) DNA: TTTTTTTTTTTTTTTTTTTTTTTTTTTTTTTTTTTTTTTTTTTTTTTTTTTTTTTTTTTTTTTTT | < 5 % quenching | ~20 % quenching | < 10 % quenching |  | 
TTTTTTTTTTTTTTTTTTTTTTTTTTTTTTTTTTTTTTTT (ssDNA) [dT40] |  |  |  | no binding | no binding

From paper PMC4909229, “Characterization of Staphylococcus aureus Primosomal DnaD Protein: Highly Conserved C-Terminal Region Is Crucial for ssDNA and PriA Helicase Binding but Not for DnaA Protein-Binding and Self-Tetrameri”
